# According to patent US9879306B2, “Luciferase biosensors for cAMP” (PROMEGA CORPORATION, priority 2008, dated 2018):
# Changes are numbered by the printed parent chain. Numbers in names are those of the source.
# T1: GPR41 (Homo sapiens, UniProt O14843)
# T1 sequence (O14843 1-346): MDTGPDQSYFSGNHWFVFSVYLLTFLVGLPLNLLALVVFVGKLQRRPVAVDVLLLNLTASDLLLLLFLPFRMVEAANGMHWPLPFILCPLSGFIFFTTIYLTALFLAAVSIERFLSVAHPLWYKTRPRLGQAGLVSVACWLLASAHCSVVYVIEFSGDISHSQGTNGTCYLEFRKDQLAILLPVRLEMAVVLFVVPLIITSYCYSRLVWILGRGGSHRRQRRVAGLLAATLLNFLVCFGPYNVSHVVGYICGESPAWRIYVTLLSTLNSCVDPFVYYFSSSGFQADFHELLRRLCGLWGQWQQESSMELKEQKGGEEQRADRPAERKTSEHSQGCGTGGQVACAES
# B1: 7A1: cAMP biosensor, RIIβB E284A and V316I, linker …; SEQ ID NO:113, 114 (protein)
# chain: MPGAVGKVVPFFEAKVVDLDTGKTLGVNQRGELCVRGPMIMSGYVNNPEATNALIDKDGWLHSGDIAYWDEDEHFFIVDRLKSLIKYKGYQVAPAELESILLQHPNIFDAGVAGLPDDDAGELPAAVVVLEHGKTMTEKEIVDYVASQVTTAKKLRGGVVFVDEVPKGLTGKLDARKIREILIKAKKGSSGGSGGSGGGMYESFIESLPFLKSLEFSERLKVVDVIGTKVYNDGEQIIAQGDSADSFFIVESGEVKITMKRKGKSEVEENGAVEIARCSRGQYFGELALVTNKPRAASAHAIGTVKCLAMDVQAFERLLGPCMEIMKRNIATYEEQLVALFGTNMDIVAKNIKKGPAPFYPLEDGTAGEQLHKAMKRYALVPGTIAFTDAHIEVDITYAEYFEMSVRLAEAMKRYGLNTNHRIVVCSENSLQFFMPVLGALFIGVAVAPANDIYNERELLNSMGISQPTVVFVSKKGLQKILNVQKKLPIIQKIIIMDSKTDYQGFQSMYTFVTSHLPPGFNEYDFVPESFDRDKTIALIMNSSGSTGLPKGVALPHRTACVRFSHARDPIFGNQIIPDTAILSVVPFHHGFGMFTTLGYLICGFRVVLMYRFEEELFLRSLQDYKIQSALLVPTLFSFFAKSTLIDKYDLSNLHEIASGGAPLSKEVGEAVAKRFHLPGIRQGYGLTETTSAILITPEGV
# notes: cAMP biosensor, RIIβB E284A and V316I, linker …
# B2: 16A2: 7A1 biosensor with F518L in Luc2.0; SEQ ID NO:60, 61 (protein)
# chain: B1 chain with F161L, S190N, G191W, G192D, G195C, G197R, G198E, E218A, V250I
# B3: 4H7: 7A1 biosensor with F407Y in RIIβb; SEQ ID NO:35, 36 (protein)
# chain: B1 chain with S190N, G191W, G192D, G195C, G197R, G198E, E218A, V250I, F341Y
# B4: GS358: parent cAMP biosensor Met-(FF luc 359-544)-GSSGGSGGSGGG-(RIIβB)-(FFluc4-355)-Val; SEQ ID NO:111, 112 (protein)
# chain: B1 chain
# System: HEK293 cells
# Assay: Screening of linker variant cAMP biosensors in HEK293 cells with isoproterenol
# Type: cell-based
# Settings: fold improvement in luminescent signal over parental GS358 with E284A and V316I; HEK293, 10 μM isoproterenol
# Excerpt: The linker variants of Example III were inserted into a CP-FF construct as in Example II. The construct further comprised a mutant RIIβb cAMP binding site containing the substitutions at […] and […]. As in Example II, the constructs were first screened in E. coli to identify linker sequences which provided improved luminescence, improved response or both. The linker variants were then screened for improved luminescence signal, response to isoproterenol, or both in HEK293 cells. On day 1, 15,000 HEK293 cells were plated to the individual wells of a 96-well plate. On day 2, cells were transiently transfected with plasmid DNAs encoding a cAMP biosensor variant comprising a variant linker sequence using the LT1 reagent from Mirus Bio. […] Isoproterenol was added to 10 μM final concentration to the individual wells, and luminescence was monitored continuously in time (Mithras luminometer; 1 second integration time). Once measurements were complete (>30 minutes), cells were lysed, and Renilla luciferase activity was measured. Biosensor luminescence (FF RLU) was normalized using the Renilla luminescence signal (RL norm), and fold-induction (response) was calculated by dividing the normalized biosensor luminescence from isoproterenol-treated wells by the normalized luminescence from control wells that received no compound addition (Figure). […]
row,Molecule,Signal Improvement [fold]
1,B1,2.4

# Same assay, conditions: fold improvement in response to isoproterenol over parental GS358 with E284A and V316I; HEK293, 10 μM
row,Molecule,Response Improvement [fold]
1,B1,1.4

# System: HEK293 cells
# Assay: Luminescence and fold response of biosensor clones in HEK293 cells after isoproterenol or FSK
# Type: cell-based
# Settings: 5 minutes after isoproterenol
# Method: B. HEK293 cells were transiently transfected with plasmid DNAs encoding various biosensor mutants as above. These biosensor mutants contained the E284A and V316I mutation in the RIIbetaB cAMP binding domain and the modified linker sequence 7A1 (GSNWDSGCSREG; SEQ ID NO: 129). The clones also contained the additional mutations outlined in Table 5. Cells were equilibrated for 2 hours at room temperature with 2 mM EF-Luc. Luminescence was measured 5 and 15 minutes after addition of the isoproterenol and 15 minutes after addition of FSK. Fold response (response; Resp.) was calculated by dividing relative light units (RLUs) from induced cells by the RLUs from uninduced cells. As a control, the biosensor GS358 and 7A1 were included.
row,Molecule,Isoproterenol-5 minutes Induced [RLU]
1,B1,73287
2,B2,44890
3,B3,42467
4,B4,41610

# Same assay, conditions: 15 minutes after FSK
row,Molecule,Forskolin (FSK) Induced [RLU]
1,B1,161755
2,B2,153670
3,B3,88555
4,B4,195335

# Same assay, conditions: 15 minutes after isoproterenol
row,Molecule,Isoproterenol-15 minutes Induced [RLU]
1,B1,173340
2,B2,141135
3,B3,207210
4,B4,184150

# Same assay, conditions: RLU induced / RLU uninduced, 5 minutes after isoproterenol
row,Molecule,Isoproterenol-5 minutes Resp [fold]
1,B1,60
2,B2,85
3,B3,86
4,B4,8

# Same assay, conditions: RLU induced / RLU uninduced, 15 minutes after FSK
row,Molecule,Forskolin (FSK) Resp [fold]
1,B1,47
2,B2,76
3,B3,33
4,B4,13

# Same assay, conditions: RLU induced / RLU uninduced, 15 minutes after isoproterenol
row,Molecule,Isoproterenol-15 minutes Resp [fold]
1,B1,51
2,B2,70
3,B3,78
4,B4,12

# Same assay, conditions: uninduced cells, 5 minutes
row,Molecule,Isoproterenol-5 minutes Uninduced [RLU]
1,B1,1231
2,B2,527
3,B3,493
4,B4,4943

# Same assay, conditions: uninduced cells, 15 minutes
Molecule,Forskolin (FSK) Uninduced [RLU],Isoproterenol-15 minutes Uninduced [RLU]
B1,3415,3415
B2,2025,2025
B3,2665,2665
B4,14895,14895

# Target: T2, dopamine D2 receptor (Homo sapiens, UniProt P14416)
# T2 construct: expressed in transfected cells
# Assay: Forskolin, dopamine and haloperidol responses of biosensor clones in HEK293 cells stably expressing the dopamine D2 receptor
# Type: cell-based
# Settings: 3 μM FSK + 0.3 μM dopamine, 10 minutes
# Excerpt: To measure changes in the intracellular concentration of cAMP, HEK293 cells are transiently transfected with mutant cAMP biosensors followed by treatment with compounds known to increase or decrease the intracellular cAMP concentration through GPCR activation of Gs- or Gi-coupled receptors, respectively.
# HEK293 cells stably expressing the dopamine D2 receptor were transiently transfected with the mutant cAMP biosensors from Example VIIB. Cells were also transfected with either 7A1 (Example III) or GS358 (parent biosensor) as controls. Cells were equilibrated for 2 hours at room temperature using 2 mM EF-luc. Antagonist assay wells were pre-treated for 10-15 minutes at room temperature with 10 μM Haloperidol (Halo). Next, the following reagents were added to their respective wells: media alone to “untreated” samples; 3 μM forskolin (FSK) to “forskolin-treated” samples; 3 μM FSK+0.3 μM dopamine to “agonist-treated” samples; and 3 μM FSK+0.3 μM dopamine to the aforementioned wells pre-treated with Halo. The cells were then incubated at room temperature for 10 minutes and luminescence was measured. Fold response for FSK was calculated by dividing the RLU from “forskolin-treated” cells by the RLU from the “untreated” cells. Fold response for dopamine treatment was calculated by dividing the RLU from the “agonist-treated” cells by the RLU from the “forskolin-treated” cells. Fold response for Haloperidol treatment was calculated by dividing the RLU from the cells treated with haloperidol then forskolin plus dopamine by the RLU of cells treated with forskolin plus dopamine alone.
# T2 sequence (P14416 whole entry, species assumed): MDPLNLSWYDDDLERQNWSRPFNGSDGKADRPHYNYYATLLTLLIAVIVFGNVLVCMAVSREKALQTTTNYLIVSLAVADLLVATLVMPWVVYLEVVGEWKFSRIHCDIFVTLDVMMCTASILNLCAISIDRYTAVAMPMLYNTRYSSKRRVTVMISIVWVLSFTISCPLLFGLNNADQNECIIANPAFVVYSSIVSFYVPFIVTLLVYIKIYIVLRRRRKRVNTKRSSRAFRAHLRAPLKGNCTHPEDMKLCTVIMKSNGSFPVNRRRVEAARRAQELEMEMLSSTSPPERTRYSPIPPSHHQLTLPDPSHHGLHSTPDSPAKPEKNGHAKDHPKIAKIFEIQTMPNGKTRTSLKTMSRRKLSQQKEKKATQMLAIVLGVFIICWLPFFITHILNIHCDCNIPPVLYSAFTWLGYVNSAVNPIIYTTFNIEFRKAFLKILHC
row,Molecule,Dopamine Induced [RLU]
1,B1,1860
2,B2,95
3,B3,583
4,B4,5153

# Same assay, conditions: 3 μM FSK, 10 minutes
row,Molecule,Forskolin (FSK) Induced [RLU]
1,B1,4709
2,B2,4117
3,B3,3180
4,B4,9166

# Same assay, conditions: 10 μM Haloperidol pre-treatment, then 3 μM FSK + 0.3 μM dopamine
row,Molecule,Halo Induced [RLU]
1,B1,5429
2,B2,223
3,B3,2778
4,B4,9218

# Same assay, conditions: RLU agonist-treated / forskolin-treated
row,Molecule,Dopamine Response [fold]
1,B1,0.38
2,B2,0.33
3,B3,0.18
4,B4,0.56

# Same assay, conditions: RLU forskolin-treated / untreated
row,Molecule,Forskolin (FSK) Response [fold]
1,B1,15
2,B2,28
3,B3,14
4,B4,5

# Same assay, conditions: RLU haloperidol then FSK + dopamine / FSK + dopamine alone
row,Molecule,Halo Response [fold]
1,B1,2.9
2,B2,2.3
3,B3,4.8
4,B4,1.9

# Same assay, conditions: untreated (media alone), 10 minutes
row,Molecule,Forskolin (FSK) Uninduced [RLU]
1,B1,307
2,B2,147
3,B3,230
4,B4,1704

# Target: T1, GPR41
# Assay: Sodium proprionate CRC with biosensor variants in HEK293 cells stably expressing GPR41
# Type: cell-based
# Settings: with FSK 1 μM
# Method in brief: (§1)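 GPR41-stable HEK293 cells were transiently transfected with a cAMP biosensor variant, then after 24 h equilibrated 2 h at room temperature with 5 mM EF-luc in CO2-independent medium with 10% FBS. Baseline luminescence was read, a sodium propionate concentration series added, and luminescence read after 30 min. EC50 and fold response were derived, with or without FSK.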
row,Molecule,Fold Response Na proprionate + FSK(1 μM)
1,B2,3.76 fold
2,B3,2.98 fold
3,B4,3.19 (n = 7) fold

# Same assay, conditions: without FSK, ratio of induced to uninduced signal
row,Molecule,Fold Response Na proprionate
1,B2,2.73 fold
2,B3,1.94 fold
3,B4,2.56 (n = 8) fold

# System: GPR41
# Assay: as above
# Type: cell-based
# Settings: ratio of RLU of FSK treated well to untreated well
# Method in brief: as §1
row,Molecule,Fold Signal Change
1,B2,89.7 fold
2,B3,93.6 fold
3,B4,9.48 (n = 8) fold
